# Data from the Immune Epitope Database (IEDB).
# Columns and labels:
# HLA-B*40:01 = test: IEDB peptide-MHC binding, purified MHC/competitive/radioactivity; filed as Kd, often an IC50 or EC50 that approximates it; ≥ and ≤ were set here for values at or beyond the usual limits of such assays; settings: source organism: Dengue virus 3 Martinique/1243/1999
# HLA-B*44:02 = test: as above
# HLA-B*44:03 = test: as above
# HLA-A*02:01 = test: IEDB peptide-MHC binding, purified MHC/competitive/fluorescence; filed as Kd, often an IC50 or EC50 that approximates it; ≥ and ≤ were set here for values at or beyond the usual limits of such assays
# HLA-A*01:01 = test: IEDB peptide-MHC binding, purified MHC/competitive/radioactivity; filed as Kd, often an IC50 or EC50 that approximates it; ≥ and ≤ were set here for values at or beyond the usual limits of such assays
# HLA-A*03:01 = test: as above; settings: source organism: SARS coronavirus Tor2
# HLA-A*11:01 = test: as above; settings: source organism: SARS coronavirus Tor2
# HLA-A*23:01 = test: as above
# HLA-A*24:02 = test: as above
# HLA-A*26:01 = test: as above
# HLA-A*29:02 = test: as above
# HLA-A*30:02 = test: as above
# HLA-A*31:01 = test: as above; settings: source organism: SARS coronavirus Tor2
# HLA-A*33:01 = test: as above; settings: source organism: SARS coronavirus Tor2
# HLA-A*68:01 = test: as above; settings: source organism: SARS coronavirus Tor2
# HLA-B*08:01 = test: as above
# HLA-B*57:01 = test: IEDB peptide-MHC binding, purified MHC/direct/fluorescence; filed as Kd, often an IC50 or EC50 that approximates it; ≥ and ≤ were set here for values at or beyond the usual limits of such assays; settings: source organism: Bacillus anthracis str. A0488
# HLA-B*58:01 = test: as above; settings: source organism: Bacillus anthracis str. A0488
# [1] = source organism: Dengue virus 3 Martinique/1243/1999
# [2] = source organism: SARS coronavirus Tor2
# [3] = source organism: Mammarenavirus lassaense
# [4] = source organism: Vaccinia virus WR
# [5] = source organism: Mammarenavirus tacaribeense
# [6] = source organism: Mammarenavirus guanaritoense
# [7] = source organism: Mammarenavirus juninense
# [8] = source organism: Dengue virus 3 Singapore/8120/1995
# [9] = source organism: Vaccinia virus Copenhagen
# [10] = source organism: Mammarenavirus machupoense
# [11] = source organism: Dengue virus 2 Jamaica/1409/1983
# [12] = source organism: Dengue virus 1 Brazil/97-11/1997
# [13] = source organism: Mammarenavirus brazilense
# [14] = source organism: Dengue virus 4 Philippines/H241/1956
sequence,measurement,setting,value
AETQNSSFII,Kd,HLA-B*40:01,23.1 nM
same,Kd,HLA-B*44:02; [1],63.8 nM
same,Kd,HLA-B*44:03; [1],34.7 nM
AIVGGLAEL,Kd,HLA-A*02:01; source organism: Japanese encephalitis virus,12 nM
ALSSDGDTV,Kd,HLA-A*02:01; source organism: Vaccinia virus Tian Tan,9.6 nM
AMDEFIQRY,Kd,HLA-A*01:01; [2],64.4 nM
same,Kd,HLA-A*03:01,1630 nM
same,Kd,HLA-A*11:01,3.23 µM
same,Kd,HLA-A*23:01; [2],≥ 20.1 µM
same,Kd,HLA-A*24:02; [2],7.9 µM
same,Kd,HLA-A*26:01; [2],≥ 84.1 µM
same,Kd,HLA-A*29:02; [2],896 nM
same,Kd,HLA-A*30:02; [2],1390 nM
same,Kd,HLA-A*31:01,≥ 77.9 µM
same,Kd,HLA-A*33:01,≥ 77.7 µM
same,Kd,HLA-A*68:01,≥ 77.7 µM
CFISVNDRLV,Kd,HLA-A*01:01; [3],18100 nM
same,Kd,HLA-A*23:01; [3],0.358 µM
same,Kd,HLA-A*24:02; [3],11.4 µM
same,Kd,HLA-A*26:01; [3],≥ 69.7 µM
same,Kd,HLA-A*29:02; [3],5260 nM
same,Kd,HLA-A*30:02; [3],573 nM
CPRRYLHRL,Kd,HLA-B*08:01; [4],2.66 nM
CWFADKNLI,Kd,HLA-A*23:01; [5],0.275 µM
same,Kd,HLA-A*24:02; [5],0.51 µM
same,Kd,HLA-A*29:02; [5],3150 nM
CYSKSLRDLV,Kd,HLA-A*01:01; [6],12600 nM
same,Kd,HLA-A*23:01; [6],3.07 µM
same,Kd,HLA-A*24:02; [6],0.529 µM
same,Kd,HLA-A*26:01; [6],≥ 69.7 µM
same,Kd,HLA-A*29:02; [6],≥ 43000 nM
same,Kd,HLA-A*30:02; [6],≥ 69700 nM
DWVVERVRWL,Kd,HLA-A*23:01; [7],≥ 51.9 µM
same,Kd,HLA-A*24:02; [7],≥ 48.7 µM
same,Kd,HLA-A*29:02; [7],≥ 71400 nM
EEEMFKKRNL,Kd,HLA-B*40:01,≥ 64300 nM
same,Kd,HLA-B*44:02; [1],90 nM
same,Kd,HLA-B*44:03; [1],815 nM
EEHSSTWHY,Kd,HLA-B*44:02; [8],17.6 nM
same,Kd,HLA-B*44:03; [8],41 nM
ENMLRSMPV,Kd,HLA-B*08:01; [4],0.213 nM
EYISDAFSL,Kd,HLA-A*01:01; [2],≥ 37600 nM
same,Kd,HLA-A*23:01; [2],≥ 64.6 µM
same,Kd,HLA-A*24:02; [2],≥ 91.8 µM
same,Kd,HLA-A*26:01; [2],≥ 77.9 µM
same,Kd,HLA-A*29:02; [2],≥ 88200 nM
same,Kd,HLA-A*30:02; [2],≥ 81100 nM
EYKLQQGTF,Kd,HLA-A*01:01; [2],≥ 78100 nM
same,Kd,HLA-A*23:01; [2],≥ 35.1 µM
same,Kd,HLA-A*24:02; [2],11.3 µM
same,Kd,HLA-A*26:01; [2],≥ 77.9 µM
same,Kd,HLA-A*29:02; [2],≥ 31600 nM
same,Kd,HLA-A*30:02; [2],≥ 78900 nM
EYQKTKLNDW,Kd,HLA-A*23:01; [1],10.8 µM
same,Kd,HLA-A*24:02; [1],10.3 µM
FGDSEEPVTY,Kd,HLA-A*01:01; [9],834 nM
same,Kd,HLA-A*23:01; [9],1.49 µM
same,Kd,HLA-A*24:02; [9],≥ 70.3 µM
same,Kd,HLA-A*26:01; [9],≥ 69.7 µM
same,Kd,HLA-A*29:02; [9],13000 nM
same,Kd,HLA-A*30:02; [9],13100 nM
FNAPALQEAY,Kd,HLA-A*01:01; [2],284 nM
same,Kd,HLA-A*23:01; [2],≥ 70 µM
same,Kd,HLA-A*24:02; [2],≥ 70.3 µM
same,Kd,HLA-A*26:01; [2],0.526 µM
same,Kd,HLA-A*29:02; [2],26.1 nM
same,Kd,HLA-A*30:02; [2],336 nM
GWHDWQQVPF,Kd,HLA-A*23:01; [1],0.414 µM
same,Kd,HLA-A*24:02; [1],0.118 µM
HCALLDCIMY,Kd,HLA-A*01:01; [10],232 nM
same,Kd,HLA-A*23:01; [10],≥ 70 µM
same,Kd,HLA-A*24:02; [10],≥ 70.3 µM
same,Kd,HLA-A*26:01; [10],≥ 69.7 µM
same,Kd,HLA-A*29:02; [10],2180 nM
same,Kd,HLA-A*30:02; [10],1420 nM
HEEPIPMSTY,Kd,HLA-B*44:02; [11],397 nM
same,Kd,HLA-B*44:03; [11],251 nM
HVQRIETWIL,Kd,HLA-B*08:01; [11],1730 nM
IARQYEQEM,Kd,HLA-B*57:01,515 nM
same,Kd,HLA-B*58:01,15 µM
ILNRRRRTA,Kd,HLA-B*08:01; [11],147 nM
IMDLEKRHVL,Kd,HLA-B*08:01; [11],42.1 nM
INKRKKTSL,Kd,HLA-B*08:01; [1],18.3 nM
IRFPRFTRI,Kd,HLA-B*08:01; [4],1600 nM
ITQKGIIFIL,Kd,HLA-B*08:01; [12],577 nM
IYRILQRGLL,Kd,HLA-B*08:01; [12],2570 nM
KWKSRLNAL,Kd,HLA-B*08:01; [11],65.6 nM
LFLAFVVFLL,Kd,HLA-A*01:01; [2],537 nM
same,Kd,HLA-A*23:01; [2],0.846 µM
same,Kd,HLA-A*24:02; [2],11.7 µM
same,Kd,HLA-A*26:01; [2],0.251 µM
same,Kd,HLA-A*29:02; [2],793 nM
same,Kd,HLA-A*30:02; [2],2000 nM
LFQLIFFLTL,Kd,HLA-A*23:01; [13],9.19 µM
same,Kd,HLA-A*24:02; [13],≥ 53.9 µM
same,Kd,HLA-A*29:02; [13],673 nM
LIAIAVASGL,Kd,HLA-B*08:01; [14],11700 nM
LKDGPERVIL,Kd,HLA-B*08:01; [12],2540 nM
LLRKHTLKI,Kd,HLA-B*08:01; [4],20.8 nM
LNGRKRSTI,Kd,HLA-B*08:01; source organism: Dengue virus 4 Dominica/814669/1981,135 nM
LNGRKRSTM,Kd,HLA-B*08:01; [14],100 nM
